Results reported in the DeepSol protein solubility set.

Experiment: soluble on expression in E. coli; label from the status in PepcDB or PDB records

Sequence | soluble on expression in E. coli
SDRPLSVHLNLGQKGNRKTSCPIKINQFEGHFMKLQADSNYLLSKEYEELKDVGRNQSCDIALLPENRGKNRYNNILPYDATRVKLSNVDDDPCSDYINASYIPGNNFRREYIVTQGPLPGTKDDFWKMVWEQNVHNIVMVTQCVEKGRVKCDHYWPADQDSLYYGDLILQMLSESVLPEWTIREFKICGEEQLDAHRLIRHFHYTVWPDHGVPETTQSLIQFVRTVRDYINRSPGAGPTVVHCSAGVGRTGTFIALDRILQQLDSKDSVDIYGAVHDLRLHRVHMVQTECQYVYLHQCVRDVLRARKLRSEQ | soluble
SDRWEVPVNPSNVRSASSHQTVSASDRASDKVDERPATFSHFQLARCGEDYTLSMVSLAAYQAERRHRGNLIKDRSQSALPWVQVYHSETGLDYSFQIDRTTTVKVAGFNYNVPNDGETRHLYSAGTSQVNMPVITDNMSACIAVACAAENVDAGTGERRPGAKVRVFHLLPFRREDLMPEQVLASVRDYLRDIKEQGLTMRVALHGGNREGDFSVSTAEALKSLFADEGIPIEFDETCANRTSETLLGAVILNDNSTQFIKH | not soluble
SDVIKTQQISARTIEKVIVHPLVLLSIVDHYNRVAKDTSKRVVGVLLGSSSRGTVDVTNSYAVPFEEDDKDTSIWFLDHNYHESMFHMFKRINAKEHIVGWYSTGPKLRENDLDVHALFNGYVPNPVLVIIDVQPKELGIPTKAYYAVEEVKENATQKSQQVFVHVPTEIAAHEVEEIGVEHLLRDVKDTTISTLATEVTAKLTALKGLDARLREIRTYLDLVIEGKLPLNHEILYHLQDVFNLLPNLNVNELVKAFAVKTNDMMLVIYLSSLIRSVIALHSLINNKLLNKEHEKAEDSKPVDIPLITES | soluble
SEATKERVGLLDTILPPALADAGLEDCALPPESIQEAFRKAANAVKSRAASIFDHEEEDGCLADPIPETADKIIVGGDNERDTGPCLAGKGIEKLAESKQAGDLVVAGEGEEGKSCVDGLKDLDVEGIERSSEKKDQSDEDEEEEMKPILVEGFV | soluble
SEKLINRVGPNGESRAQAVTSDQEKRLLHQLREITRVMKEGKFIDTSPEKEAEEAPYMEDWEGYPEETYPIYDLSDGIKRRQETILVDYPDLKEPSAEEIAEQMGEIEEEGSERLSWDHLPTDPGAQKDNSVAPCDPKPESCSCCVHEEEDPAVLAENAGFSADGYSEQEEATKENLPQDFTNEGLGVSTDNAHVGGMLRKRNPQGFE | soluble
SEKTQETVQRILLEPYKYLLQLPGKQVRTKLSQAFNHWLKVPEDKLQIIIEVTEMLHNASLLIDDIEDNSKLRRGFPVAHSIYGIPSVINSANYVYFLGLEKVLTLDHPDAVKLFTRQLLELHQGQGLDIYWRDNYTCPTEEEYKAMVLQKTGGLFGLAVGLMQLFSDYKEDLKPLLNTLGLFFQIRDDYANLHSKEYSENKSFCEDLTEGKFSFPTIHAIWSRPESTQVQNILRQRTENIDIKKYCVHYLEDVGSFEYTRNTLKELEAKAYKQIDARGGNPELVALVKHLSKMFKEENE | soluble
SENLYFQSKVTVGPDPSLVYRPDVDPEVAKDKASFRNYTSGPLLDRVFTTYKLMHTHQTVDFVRSKHAQFGGFSYKKMTVMEAVDLLDGLVDESDPDVDFPNSFHAFQTAEGIRKAHPDKDWFHLVGLLHDLGKVLALFGEPQWAVVGDTFPVGCRPQASVVFCDSTFQDNPDLQDPRYSTELGMYQPHCGLDRVLMSWGHDEYMYQVMKFNKFSLPPEAFYMIRFHSFYPWHTGRDYQQLCSQQDLAMLPWVREFNKFDIYTKCPDLPDVDKLRPYYQGLIDKYCPGILSW | soluble
SESWRSFFKEALQGVGDMGRAYWDIMISNHQNSNRYLYARGNYDAAQRGPGGVWAAKLISRSRVYLQGLIDYYLFGNSSTVLEDSKSNEKAEEWGRSGKDPDRFRPDGLPKKY | soluble
SGFNHVKPTEYKPRLLHISGDKNAKVAEVPLATSSLNSGDCFLLDAGLTIYQFNGSKSSPQEKNKAAEVARAIDAERKGLPKVEVFCETDSDIPAEFWKLLGGKGAIAAKHETA | soluble
SGGGGGVLWDTPSPKEYKKGDTTTGVYRIMTRGLLGSYQAGAGVMVEGVFHTLWHTTKGAALMSGEGRLDPYWGSVKEDRLCYGGPWKLQHKWNGQDEVQMIVVEPGKNVKNVRTKPGVFKTPEGEIGAVTLDFPTGTSGSPIVDKNGDVIGLYGNGVIMPNGSYISAIVQGKRMDEPIPAGFEPEMLGSRSHHHHHH | soluble
SHRKFVVQLFAEEWGQYVDLPKGFAVSERCKVRLVPLQIQLTTLGNLTPSSTVFFCCDMQERFRPAIKYFGDIISVGQRLLQGARILGIPVIVTEQYPKGLGSTVQEIDLTGVKLVLPKTKFSMVLPEVEAALAEIPGVRSVVLFGVETHVCIQQTALELVGRGVEVHIVADATSSRSMMDRMFALERLARTGIIVTTSEAVLLQLVADKDHPKFKEIQNLIKASAPESGLLSKV | soluble
SHVEYSRITKFFQEQPLEGYTLFSHRSAPNGFKVAIVLSELGFHYNTIFLDFNLGEHRAPEFVSVNPNARVPALIDHGMDNLSIWESGAILLHLVNKYYKETGNPLLWSDDLADQSQINAWLFFQTSGHAPMIGQALHFRYFHSQKIASAVERYTDEVRRVYGVVEMALAERREALVMELDTENAAAYSAGTTPMSQSRFFDYPVWLVGDKLTIADLAFVPWNNVVDRIGINIKIEFPEVYKWTKHMMRRPAVIKALRGE | soluble
SIDKNFWQGKRVFVTGHTGFKGSWLSLWLTEMGAIVKGYALDAPTVPSLFEIVRLNDLMESHIGDIRDFEKLRSSIAEFKPEIVFHMAAQPLVRLSYEQPIKTYSTNVMGTVHLLETVKQVGNIKAVVNITSDKCYDNREWVWGYRENEPMGGYDPYSNSKGCAELVASAFRNSFFNPANYEQHGVGLASVRAGNVIGGGDWAKDRLIPDILRSFENNQQVIIRNPYSIRPWQHVLEPLSGYIVVAQRLYTEGAKFSEGWNFGPRDEDAKTVEFIVDKMVTLWGDDASWLLDGENHPHEAHYLKLDCSKANMQLGWHPRWGLTETLSRIVKWHKAWIRGEDMLICSKREISDYMSATTR | soluble
SKEFFAPQRAGMKLRTFSDIDKYYTEQKKQEYHKEKVRVVAMAQVARERVRVAVNEHLNQKKYATQKLIEENKETIQNSLRQVWQNRFNYLEKARERKALFLKEKSQKASERLLVQNLNNERTLLTRGLLKIDRLEKNEAVLKEKSLIVKQKLKAEKYRKNLLKEMKKVRSQEIYKRHCEEKFVMDMIAFEKACERLQDAKTKVAIVKTNLDFKVPNGLIK | soluble
SKNAVANSSSSEPAVSQTENASSSLEHENKARELASDAQANKTQELAPDSRQESLAPQEPFIDINRMLDSLSGDEGAVRMLLEVFIQDHAEDGSKLHKLLNEDIDNAQRAAHSLKGVSGSLGAMPLHYISGEIELLIKQGKEVPDNKLCQLRDVLQQTTLFAEKVLNSEKIREVLTD | not soluble
SKSINVDQISIRSLSEPANPFSFWQWIFIYLPGLKEDEKQEILTHEQTHVRQWHSIDVIISEIVNIICWMNPFAWLLKTEIRLNLEYLADHKVMESGTNKKAYQYHLLGLA | not soluble
SKVALITGVTGQDGSYLAEFLLEKGYEVHGIKRRASSFNTERVDHIYQDPHTCNPKFHLHYGDLSDTSNLTRILREVQPDEVYNLGAMSHVAVSFESPEYTADVDAMGTLRLLEAIRFLGLEKKTRFYQASTSELYGLVQEIPQKETTPFYPRSPYAVAKLYAYWITVNYRESYGMYACNGILFNHESPRRGETFVTRKITRAIANIAQGLESCLYLGNMDSLRDWGHAKDYVKMQWMMLQQEQPEDFVIATGVQYSVRQFVEMAAAQLGIKLRFEGTGVEEKGIVVSVTGHDAPGVKPGDVIIAVDPRYFRPAEVETLLGDPTKAHEKLGWKPEITLREMVSEMVANDLEAAKKHSLLKSHGYDVAIALES | soluble
SLAVDQTRYIFRGDKDALTITVTNNDKERTFGGQAWVDNIVEKDTRPTFVVTPSFFKVKPNGQQTLRIIMASDHLPKDKESVYWLNLQDIPPALEGSGIAVALRTKLKLFYRPKALLEGRKGAEEGISLQSRPDGRTMLVNTTPYIFAIGSLLDGNGKKIATDNGTTQKLLMFMPGDEVQVKGNVVKVDSLNDYGELQTWTINKKKPAAPEAAKAEKADTAEQK | soluble
SLDGAHKMARVWVGILNWSLKHIVGLKYRIIGAENIPDRPAVICAKHQSGWETLALQDIFPPQVYVAKRELFKIPFFGWGLKLVKTIGIDRNNRREANEQLIKQGLVRKNEGYWITIFPEGTRLAPGKRGKYKLGGARMAKMFEMDIVPVALNSGEFWPKNSFLKYPGEITVVICPTIPHASGSEAELMEKCEHLIETQQPLISGAGPFAAKMPSETAEG | soluble
SLEPIGRSLQGVTGRPDFQKRLEQMKEKVMKDQDVQAFLKENEEVIDQKMIEKSLNKLYEYIEQSKNCSYCSEDENCNNLLEGYHPKLVVNGRSIDIEYYECPVKRKLDQQKKQQSLMKSMYIQQDLLGATFQQVDISDPSRLAMFQHVTDFLKSYNETGKGKGLYLYGKFGVGKTFMLAAIANELAEKEYSSMIVYVPEFVRELKNSLQDQTLEEKLNMVKTTPVLMLDDIGAESMTSWVRDEVIGTVLQHRMSQQLPTFFSSNFSPDELKHHFTYSQRGEKEEVKAARLMERILYLAAPIRLDGENRRHP | soluble
SLESEGRSPIFTHLVTSLKGLWTLRAFGRQPYFETLFHKALNLHTANGGAMFSLIYKKTLKLSSRVLDKISIGQLVSLLSNNLNKFDEGGGGAINKIQDFLQKQEYKTLEYNLTTTEVVMENVTAFWEEGFGELFEKAKQNNNNRKTSNGDDSLFFSNFSLLGTPVLKDINFKIERGQLLAVAGSTGAGKTSLLMMIMGELEPSEGKIKHSGRISFCSQFSWIMPGTIKENIIFGVSYDEYRYRSVIKACQLEEDISKFAEKDNIVLGEGGITLSGGQRARISLARAVYKDADLYLLDSPFGYLDVLTEKEIFESCVCKLMANKTRILVTSKMEHLKKADKILILHEGSSYFYGTFSELQNLQPDFSSKLMG | soluble
SLFHLLGAQQNQKLKRRRFFCPVCGGELAVKLGLQKAPHFAHKQNKSCAIDIEPESAYHLEGKRQLYVWLKTQRASPILEPYIRTINQRPDVMARIKEHMLAVEYQCATIAPDVFQKRTEGFKQEGIIPQWIMGYSRLKRTASSFYQLSTFHWQFINASPYRELICYCPERRSFLRLSHIIPFYTNHSYSSVQTIPIHRAGAGDLFFTEPKPSIQYSGWTKAIHRFRHKPHRFNSKETNRLRLLFYEKRQTPFSFLPTEVFVPVRKGAVFKSPVFVWQGFLYLFMTDLGGKRAPIRFSAVLQQCKLHIHNKNIALRSECSEECLSEAVKQYIDFLCKKGFLRETQKEVYVLNQPAGGIHSMQDLIERDRSCFIE | soluble
SLGKKIETHLEDMVAQANAQLKLTAPESNLEVSYQNYHRGVFSSQLQLLVKPIAGKENPWIKSGQSVIFNESVDHGPFPLAQLKKLNLIPSMASIQTTLVNNEVSKPLFDMAKGETPFEINSRIGYSGDSSSDISLKPLNYEQKDEKVAFSGGEFQLNADRDGKAISLSGEAQSGRIDAVNEYNQKVQLTFNNLKTDGSSTLASFGERVGNQKLSLEKMTISVEGKELALLEGMEISGKSDLVNDGKTINSQLDYSLNSLKVQNQDLGSGKLTLKVGQIDGEAWHQFSQQYNAQTQALLAQPEIANNPELYQEKVTEAFFSALPLMLKGDPVITIAPLSWKNSQGESALNLSLFLKDPATTKEAPQTLAQEVDRSVKSLDAKLTIPVDMATEFMTQVAKLEGYQEDQAKKLAKQQVEGASAMGQMFRLTTLQDNTITTSLQYANGQITLNGQKMSLEDFVGMFAMPALNVPAVPAIPQQ | soluble
